The record followed here is publication PMC11677724, “Preclinical Study of a Dual-Target Molecular Probe Labeled with ^68Ga Targeting SSTR2 and FAP” (Pharmaceuticals, 2024).

The test system of data set [1] is NCI-H727 tumor-bearing mice. The experiment in a line: Ex vivo biodistribution in NCI-H727 tumor-bearing mice. Conditions: biodistribution in NCI-H727 tumor-bearing mice. On the procedure: (§1) Female BALB/c nude mice were obtained from Charles River Laboratories (Beijing, China). […] Approximately 5 × 10^6 cells were implanted into the right shoulder of each mouse to establish an NCI-H727 tumor model and Mc38 tumor model. Once the tumor volume reached 200–300 mm^3, the mice were used for imaging or biodistribution studies. All animal experiments were carried out in accordance with the National Institutes of Health Guidelines for the Care and Use of Laboratory Animals and were approved by the Animal Protection and Utilization Committee of the General Hospital of the PLA (Approval No.: S2023-209-1).
The NCI-H727 tumor-bearing mice were randomly assigned to four groups (with three mice in each group) and were injected with [^68Ga]Ga-TATE-46 (1.48 MBq, 100 µL). The mice were put to death at 0.5, 1, 2, and 4 h post-injection (p.i.). The tissues and organs of concern were gathered, weighed, and measured for radioactivity using a γ-counter. Additionally, [^68Ga]Ga-DOTA-TATE and [^68Ga]Ga-FAPI-46 were used as control groups in the biodistribution study of the NCI-H727 tumor model at 1 h p.i. After performing time decay correction, the radiotracer uptake in each tissue and organ was calculated as %ID/g.

Data set [2] is described as follows: Partition coefficient (log P), n-octanol/PBS. The class given is physicochemical. The settings on record: shake-flask n-octanol/PBS (0.1 mol/L, pH 7.4), 14.8 MBq in 100 µL, vortexed 2 min at room temperature, centrifuged 3000 rpm 5 min, γ-counter CPM; mean ± SD, repeated three times; read-out: Log p. On the procedure:
In a 15 mL centrifuge tube, 2.9 mL of PBS (0.1 mol/L, pH = 7.4) and 3 mL of n-octanol were added. [^68Ga]Ga-TATE-46, [^68Ga]Ga-DOTA-TATE, or [^68Ga]Ga-FAPI-46 (14.8 MBq, 100 µL) were added to each tube. The mixture was vortexed at room temperature for 2 min to ensure thorough blending, and then centrifuged at room temperature (effective centrifuge radius 12 cm, 3000 rpm) for 5 min. After allowing sufficient time for phase separation, three 500 µL samples were taken from each layer. The radioactivity of each sample was measured using a γ-counter (count per minute, CPM), and log p = log (n-octanol CPM/water CPM) was calculated. The experiment was repeated three times.

Data set [3] has as its system NCI-H727 cells (SSTR2/FAP, positive). In words: Cell uptake and blocking in NCI-H727 cells. The class given is cell-based. The settings on record: 1 h. On the procedure: The NCI-H727 and Mc38 cell lines were supplied by the Stem Cell Bank of the Chinese Academy of Sciences and were cultivated in Roswell Park Memorial Institute (RPMI-1640) medium with 10% (v/v) fetal bovine serum (FBS) at 37 °C with 5% CO2. All cells were cultured until they reached 80–90% confluence before undergoing trypsinization.
NCI-H727 cells were placed in a 24-well plate and cultivated for 24 h. The original medium was removed, and fresh RPMI-1640 was added. Then, 100 µL of [^68Ga]Ga-TATE-46, [^68Ga]Ga-DOTA-TATE, or [^68Ga]Ga-FAPI-46 (1.48×10^4 Bq) was added to each well, and the cells were incubated for 30 min, 1 h, 2 h, and 4 h (with three replicates for each time point). The culture medium was taken away, and the cells were washed twice with cold PBS (pH 7.4). Then, the cells were lysed using 0.5 mL of 1 M NaOH.
In blocking experiments, an excessive amount of unlabeled FAPI-46, DOTA-TATE, or FAPI-46 + DOTA-TATE (10 µg/well) was added as an inhibitor along with [^68Ga]Ga-TATE-46 to the cells. After 1 h, the cells were processed using the same method. Finally, the cell lysates were gathered, and the radioactivity was measured using a γ-counter. Mc38 cells were used as a negative control, with only [^68Ga]Ga-TATE-46 (1.48 × 10^4 Bq/well, 100 µL) added, and the rest of the procedure was followed as described above.

A short description of data set [4]: In vitro stability in physiological saline/PBS or FBS, radio-HPLC. Conditions: 1.85 MBq in 5 µL, 37 °C, 2 h. The class given is in vitro ADME. On the procedure:
A measure of 5 µL of [^68Ga]Ga-TATE-46 (1.85 MBq) was added to 300 µL of PBS or FBS and incubated at 37 °C for 2 h. Subsequently, the radiochemical purity was determined using HPLC.

Data set [5] in a line: Micro PET imaging with ROI quantification, MC38 tumor-bearing mice. Format: in vivo. Conditions: female, BALB/c nude, mouse, iv, total radioactivity, 1 h p.i., 5.55–7.4 MBq tail vein, MC38 tumors (SSTR2/FAP, negative), read-out: uptake in MC38 tumors (ROI quantitative analysis of PET images). On the procedure: as §1
Each set of NCI-H727 tumor xenograft models (n = 3) was administered with [^68Ga]Ga-TATE-46, [^68Ga]Ga-DOTA-TATE, or [^68Ga]Ga-FAPI-46 (5.55–7.4 MBq, 150 µL/mouse) through the tail vein. Static PET scans were performed at 30 min, 1 h, 2 h, and 4 h after injection for 10 min each. In blocking studies, unlabeled precursors (FAPI-46, DOTA-TATE, FAPI-46 + DOTA-TATE, 10 mg/kg) were co-injected with [^68Ga]Ga-TATE-46. After image acquisition, the images were reconstructed using the three-dimensional ordered subset expectation maximization (3D-OSEM) algorithm and analyzed on the Recon/Avator-s-10 workstation. The percentage of injected dose per gram of tissue (%ID/g) was determined by delineating regions of interest.

In the case of `C[C@@H](O)[C@H](NC(=O)[C@@H]1CSSC[C@H](NC(=O)[C@@H](Cc2ccccc2)NC(=O)CCCCCNC(=O)CCCCCNC(=O)[C@H](Cc2ccccc2)NC(=O)C(CCC(=O)N[C@@H](Cc2ccccc2)C(=O)NCCCCCC(=O)NCCCCCC(=O)N2CCN(CCCN(C)c3ccc4nccc(C(=O)NCC(=O)N5CC(F)(F)C[C@H]5C#N)c4c3)CC2)NC(=O)CN2CCN(CC(=O)O)CCN(CC(=O)O)CCN(CC(=O)O)CC2)C(=O)N[C@@H](Cc2ccc(O)cc2)C(=O)N[C@H](Cc2c[nH]c3ccccc23)C(=O)N[C@@H](CCCCN)C(=O)N[C@@H]([C@@H](C)O)C(=O)N1)C(=O)O` (stereo partly shown) [[^68Ga]Ga-TATE-46, metal not drawn], the tumor/muscle ratio in data set [1] is 3–4. In addition, the logD in data set [2] was -0.2 ± 0.05. In addition, the “cellular uptake in NCI-H727 cells compared with [68Ga]Ga-DOTA-TATE and [68Ga]Ga-FAPI-46” value in data set [3] (1.48×10^4 Bq/well, 30 min, 2 h, 4 h, γ-counter, n = 3, all p < 0.001) is listed as “significantly higher”. In addition, in data set [3] (blocker at 1000 times the molar amount (10 µg/well), all p < 0.01), the “cellular uptake in NCI-H727 cells on co-incubation with unlabeled TATE, FAPI-46, or TATE + FAPI-46” value is “significant reduction”. Moreover, in data set [4] (300 µL FBS), the “In vitro stability in FBS (HPLC chromatogram)” value is “only one peak”. For the same molecule, the “In vitro stability in physiological saline (HPLC chromatogram)” value in data set [4] (physiological saline (method: 300 µL PBS)) is reported as “only one peak”. Besides, the tissue uptake at 1 h in data set [5] was found to be 2.05 ± 0.09 %ID/g.
